The target in the test is T1, Spindlin1_50–262 (Homo sapiens, UniProt Q9Y657).
T1 construct: The Spindlin1_50–262 samples were dialyzed against the buffer; GST (N, cleaved yes); made in house; host or cells: Escherichia coli BL21 (DE3)
Put plainly: Thermal shift assay (TSA), Spindlin1_50–262 mixed with histone H3 peptides. Conditions: the row's label is the comparator peptide. Type of test: binding. The protocol:
Recombinant proteins were overexpressed in Escherichia coli BL21 (DE3) strain. […] After cell lysis and centrifugation, the supernatant was loaded onto a GST affinity column and washed with lysis buffer. Then the bound proteins were subjected to on-column cleavage by PreScission Protease overnight. […] Purified peak fractions were concentrated to 25 mg/ml in 150 mM NaCl, 20 mM Tris, pH 8.0, aliquoted, and stored at −80°C for future use. The TSA was performed with a CFX96 real-time PCR instrument (Bio-Rad). […] All solutions were prepared in 25 µl of the same buffer (20 mM Hepes Na, pH 7.5, 150 mM NaCl) and incubated at 4°C for 1 h. During TSA assays, samples were heated from 25°C to 90°C at a rate of 0.5°C per minute. Protein denaturation progress was monitored by increased fluorescence signal of Sypro Orange, which captures the exposure of the protein hydrophobic core during thermal unfolding. Changes in the fluorescence signal were recorded and analyzed by the software CFX-Manager (Bio-Rad). When 50% of the protein is denatured, the folding and unfolding states of the protein are in dynamic equilibrium, and the corresponding temperature is the protein's melting temperature.

T1 sequence (Q9Y657 50-262): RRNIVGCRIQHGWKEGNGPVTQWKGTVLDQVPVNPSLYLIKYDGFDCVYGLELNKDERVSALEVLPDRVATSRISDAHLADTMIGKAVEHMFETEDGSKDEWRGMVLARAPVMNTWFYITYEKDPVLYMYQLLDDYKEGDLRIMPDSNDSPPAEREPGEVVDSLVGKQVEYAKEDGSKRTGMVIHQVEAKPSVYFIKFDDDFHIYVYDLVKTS

Consider “H3_1–20 K9me3: synthetic histone H3 residues 1–20 peptide with K9me3”, for which the “amount by which the Tm with H3_1–20 “K4me3-K9me3” ([…]) is greater than the Tm with this peptide” value worked out at 12.0 °C.
The same measure for “unmodified H3_1–20: unmodified synthetic histone H3 residues 1–20 peptide”: 15.0 °C.

Source of the values: PMC7864079, “Molecular basis for histone H3 “K4me3-K9me3/2” methylation pattern readout by Spindlin1” (The Journal of Biological Chemistry, 2021).
